In experiment [1] the target is Mod.Caspase 3/172(NS5A/B) (human) (UniProt P42574). The experiment can be described thus: cell-based or functional assay.
Experiment [2] concerns the target modified BID with an HCV NS3 cleavage site (human) (UniProt P55957). The experiment can be described thus: cell-based or functional assay.

For the substance “HCV NS3/NS4A protease (from UniProt P27958 1027-1657; P27958 1658-1711) (enzyme)”, the cell death, FACS analysis of living EGFP positive CHOP cells, (+) NS3 Protease in experiment [1] and in experiment [2] was greater than 30 % cell death in each case.

On to “single-chain HCV protease (NS4A-NS3) (from UniProt P27958 1678-1689; P27958 1029-1207) (enzyme)”, for which, in experiment [2], the AnnexinV positive H9C2 cells, FACS, 24 hours (% more cells than control) turned out to be 50 and the AnnexinV positive H9C2 cells, FACS, 24 hours, no VAD-fmk stood at 60%.

Values taken from patent publication US20040043949A1.
